In publication PMC9352680, “A comprehensive thermodynamic model for RNA binding by the Saccharomyces cerevisiae Pumilio protein PUF4”:

T1: PUF4 RNA-binding domain (Saccharomyces cerevisiae, UniProt P25339 537-888)
T1 sequence: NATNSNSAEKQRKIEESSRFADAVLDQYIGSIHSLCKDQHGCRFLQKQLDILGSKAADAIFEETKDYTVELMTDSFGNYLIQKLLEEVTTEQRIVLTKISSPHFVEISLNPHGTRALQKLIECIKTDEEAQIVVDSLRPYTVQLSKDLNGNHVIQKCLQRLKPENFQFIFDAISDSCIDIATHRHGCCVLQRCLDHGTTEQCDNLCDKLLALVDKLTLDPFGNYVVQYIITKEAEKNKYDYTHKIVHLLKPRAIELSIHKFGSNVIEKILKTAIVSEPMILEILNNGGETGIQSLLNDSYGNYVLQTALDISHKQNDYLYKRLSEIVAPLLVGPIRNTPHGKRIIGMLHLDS


Biological target: T1, PUF4 RNA-binding domain
Assay: Mg; RNA-MaP; 20 mM Na-HEPES pH 7.4, 30 mM KOAc, 0.75 mM MgCl2, 0.1% Tween-20, 5% glycerol, 0.1 mg/mL BSA, 2 mM DTT; 25 C; 0.0125-409.6 nM protein
Conditions: tags: N-His6-TEV cleaved; C-SNAP kept, Cy3B-labelled; label: tethered on chip by stalled RNA polymerase

Binder | Kd [nM]
UCUCUUUGUGUAUAUUAAAUCUCUU (ssRNA) [Id_ii_S1_P4E.2_K4.1_C4.2_[C-2T]_[T-1G]_H4.1_A4.1_F4.1_T4.2_[G10A]_[T11A]] | 1.47
UCUCUUUAUGUAUAUUAAAUCUCUU (ssRNA) [Id_ii_S1_P4E.2_K4.1_C4.2_[C-2T]_[T-1A]_H4.1_A4.1_F4.1_T4.2_[G10A]_[T11A]] | 1.94
UCUCUUUAUGUAUAUUAGUUCUCUU (ssRNA) [Id_ii_S1_P4E.2_K4.1_C4.2_[C-2T]_[T-1A]_H4.1_A4.1_F4.1_T4.2] | 0.379
UCUCUUGCUGUAUAUUAUAUCUCUU (ssRNA) [Id_ii_S1_P4E.2_K4.1_C4.2_[C-2G]_[T-1C]_H4.1_A4.1_F4.1_T4.2_[G10T]_[T11A]] | 1.92
UCUCUUUCUGUAUAUUAUUUCUCUU (ssRNA) [Id_ii_S1_P4E.2_K4.1_C4.2_[C-2T]_[T-1C]_H4.1_A4.1_F4.1_T4.2_[G10T]] | 0.502
UCUCUUUUUGUAUAUUAUUUCUCUU (ssRNA) [Id_ii_S1_P4E.2_K4.1_C4.2_[C-2T]_H4.1_A4.1_F4.1_T4.2_[G10T]] | 0.679
UCUCUUUAUGUAUAUUAUUUCUCUU (ssRNA) [Id_ii_S1_P4E.2_K4.1_C4.2_[C-2T]_[T-1A]_H4.1_A4.1_F4.1_T4.2_[G10T]] | 1.07
UCUCUUUAUAUACUAUCUCUU (ssRNA) [Ib_S1_P4E.1_K4.1_C4.1_H4.1_[G2A]_A4.1_[T7C]_F4.1_T4.1] | 17.8
UCUCUUUCUGUAUAUUAUAUCUCUU (ssRNA) [Id_ii_S1_P4E.2_K4.1_C4.2_[C-2T]_[T-1C]_H4.1_A4.1_F4.1_T4.2_[G10T]_[T11A]] | 0.738
UCUCUUUUUGUAUAUUAUGUCUCUU (ssRNA) [Id_ii_S1_P4E.2_K4.1_C4.2_[C-2T]_H4.1_A4.1_F4.1_T4.2_[G10T]_[T11G]] | 0.981
UCUCUUUCUGUAUAUUAAAUCUCUU (ssRNA) [Id_ii_S1_P4E.2_K4.1_C4.2_[C-2T]_[T-1C]_H4.1_A4.1_F4.1_T4.2_[G10A]_[T11A]] | 1.06
UCUCUUUGUGUAUAUUAUUUCUCUU (ssRNA) [Id_ii_S1_P4E.2_K4.1_C4.2_[C-2T]_[T-1G]_H4.1_A4.1_F4.1_T4.2_[G10T]] | 0.848
UCUCUUGUUGUAUAUUAUCUCUCUU (ssRNA) [Id_ii_S1_P4E.2_K4.1_C4.2_[C-2G]_H4.1_A4.1_F4.1_T4.2_[G10T]_[T11C]] | 0.891
UCUCUUUCUGUAUAUUAACUCUCUU (ssRNA) [Id_ii_S1_P4E.2_K4.1_C4.2_[C-2T]_[T-1C]_H4.1_A4.1_F4.1_T4.2_[G10A]_[T11C]] | 0.887
UCUCUUUGUGUAUAUUAAUUCUCUU (ssRNA) [Id_ii_S1_P4E.2_K4.1_C4.2_[C-2T]_[T-1G]_H4.1_A4.1_F4.1_T4.2_[G10A]] | 1.63
UCUCUUGUUGUAUAUUAAUUCUCUU (ssRNA) [Id_ii_S1_P4E.2_K4.1_C4.2_[C-2G]_H4.1_A4.1_F4.1_T4.2_[G10A]] | 1.25
UCUCUUACUGUAUAUUAUGUCUCUU (ssRNA) [Id_ii_S1_P4E.2_K4.1_C4.2_[C-2A]_[T-1C]_H4.1_A4.1_F4.1_T4.2_[G10T]_[T11G]] | 1.34
UCUCUUUAUGUAUAUUACUUCUCUU (ssRNA) [Id_ii_S1_P4E.2_K4.1_C4.2_[C-2T]_[T-1A]_H4.1_A4.1_F4.1_T4.2_[G10C]] | 1.03
UCUCUUUUUGUAUAUUAAAUCUCUU (ssRNA) [Id_ii_S1_P4E.2_K4.1_C4.2_[C-2T]_H4.1_A4.1_F4.1_T4.2_[G10A]_[T11A]] | 1.21
UCUCUUGUUGUAUAUUAUUUCUCUU (ssRNA) [Id_ii_S1_P4E.2_K4.1_C4.2_[C-2G]_H4.1_A4.1_F4.1_T4.2_[G10T]] | 0.762
UCUCUUUUUGUAUAUUAUCUCUCUU (ssRNA) [Id_ii_S1_P4E.2_K4.1_C4.2_[C-2T]_H4.1_A4.1_F4.1_T4.2_[G10T]_[T11C]] | 0.856

Binder | Kd [nM]
UCUCUUUGUAUACUAUCUCUU (ssRNA) [Ic_S1_P4E.1_K4.1_C4.1_H4.1_A4.1_[T7C]_F4.1_T4.1] | 0.741
UCUCUUACUGUAUAUUACUUCUCUU (ssRNA) [Id_ii_S1_P4E.2_K4.1_C4.2_[C-2A]_[T-1C]_H4.1_A4.1_F4.1_T4.2_[G10C]] | 1.6
UCUCUUACUGUAUAUUACCUCUCUU (ssRNA) [Id_ii_S1_P4E.2_K4.1_C4.2_[C-2A]_[T-1C]_H4.1_A4.1_F4.1_T4.2_[G10C]_[T11C]] | 1.69
UCUCUUUAUAUAAUAUCUCUU (ssRNA) [Ib_S1_P4E.1_K4.1_C4.1_H4.1_[G2A]_A4.1_[T7A]_F4.1_T4.1] | 61.4
UCUCUUGUUGUAUAUUAGUUCUCUU (ssRNA) [Id_ii_S1_P4E.2_K4.1_C4.2_[C-2G]_H4.1_A4.1_F4.1_T4.2] | 0.355
UCUCUUGCUGUAUAUUAAUUCUCUU (ssRNA) [Id_ii_S1_P4E.2_K4.1_C4.2_[C-2G]_[T-1C]_H4.1_A4.1_F4.1_T4.2_[G10A]] | 2.69
UCUCUUUCUGUAUAUUAGUUCUCUU (ssRNA) [Id_ii_S1_P4E.2_K4.1_C4.2_[C-2T]_[T-1C]_H4.1_A4.1_F4.1_T4.2] | 0.308
UCUCUUUAUGUAUAUUAGCUCUCUU (ssRNA) [Id_ii_S1_P4E.2_K4.1_C4.2_[C-2T]_[T-1A]_H4.1_A4.1_F4.1_T4.2_[T11C]] | 0.465
UCUCUUACUGUAUAUUAUCUCUCUU (ssRNA) [Id_ii_S1_P4E.2_K4.1_C4.2_[C-2A]_[T-1C]_H4.1_A4.1_F4.1_T4.2_[G10T]_[T11C]] | 1.4
UCUCUUUAUGUAUAUUAAUUCUCUU (ssRNA) [Id_ii_S1_P4E.2_K4.1_C4.2_[C-2T]_[T-1A]_H4.1_A4.1_F4.1_T4.2_[G10A]] | 1.17
UCUCUUUGUGUAUAUUAUCUCUCUU (ssRNA) [Id_ii_S1_P4E.2_K4.1_C4.2_[C-2T]_[T-1G]_H4.1_A4.1_F4.1_T4.2_[G10T]_[T11C]] | 1.06
UCUCUUUCUGUAUAUUAUCUCUCUU (ssRNA) [Id_ii_S1_P4E.2_K4.1_C4.2_[C-2T]_[T-1C]_H4.1_A4.1_F4.1_T4.2_[G10T]_[T11C]] | 0.77
UCUCUUUCUGUAUAUUACUUCUCUU (ssRNA) [Id_ii_S1_P4E.2_K4.1_C4.2_[C-2T]_[T-1C]_H4.1_A4.1_F4.1_T4.2_[G10C]] | 0.672
UCUCUUGCUGUAUAUUAUGUCUCUU (ssRNA) [Id_ii_S1_P4E.2_K4.1_C4.2_[C-2G]_[T-1C]_H4.1_A4.1_F4.1_T4.2_[G10T]_[T11G]] | 2.24
UCUCUUUGUGUAUAUUAUGUCUCUU (ssRNA) [Id_ii_S1_P4E.2_K4.1_C4.2_[C-2T]_[T-1G]_H4.1_A4.1_F4.1_T4.2_[G10T]_[T11G]] | 0.968
UCUCUUUUUGUAUAUUAUAUCUCUU (ssRNA) [Id_ii_S1_P4E.2_K4.1_C4.2_[C-2T]_H4.1_A4.1_F4.1_T4.2_[G10T]_[T11A]] | 1.24
UCUCUUUGCAUGUUAUCUCUU (ssRNA) [Ib_S1_P4E.1_K4.1_C4.1_H4.1_[T3C]_A4.1_[A6G]_F4.1_T4.1] | 2150
UCUCUUUUUGUAUAUUAGGUCUCUU (ssRNA) [Id_ii_S1_P4E.2_K4.1_C4.2_[C-2T]_H4.1_A4.1_F4.1_T4.2_[T11G]] | 0.884
UCUCUUUGUGUAUAUUAGUUCUCUU (ssRNA) [Id_ii_S1_P4E.2_K4.1_C4.2_[C-2T]_[T-1G]_H4.1_A4.1_F4.1_T4.2] | 0.304
UCUCUUUGCACAUUAUCUCUU (ssRNA) [Ib_S1_P4E.1_K4.1_C4.1_H4.1_[T3C]_A4.1_[T5C]_F4.1_T4.1] | 36.2
UCUCUUAGUGUAUAUUAUUUCUCUU (ssRNA) [Id_ii_S1_P4E.2_K4.1_C4.2_[C-2A]_[T-1G]_H4.1_A4.1_F4.1_T4.2_[G10T]] | 2.57

Binder | Kd [nM]
UCUCUUUAUGUAUAUUAACUCUCUU (ssRNA) [Id_ii_S1_P4E.2_K4.1_C4.2_[C-2T]_[T-1A]_H4.1_A4.1_F4.1_T4.2_[G10A]_[T11C]] | 1.35
UCUCUUUUUGUAUAUUAAGUCUCUU (ssRNA) [Id_ii_S1_P4E.2_K4.1_C4.2_[C-2T]_H4.1_A4.1_F4.1_T4.2_[G10A]_[T11G]] | 3.68
UCUCUUGCUGUAUAUUAACUCUCUU (ssRNA) [Id_ii_S1_P4E.2_K4.1_C4.2_[C-2G]_[T-1C]_H4.1_A4.1_F4.1_T4.2_[G10A]_[T11C]] | 1.52
UCUCUUGCUGUAUAUUAUUUCUCUU (ssRNA) [Id_ii_S1_P4E.2_K4.1_C4.2_[C-2G]_[T-1C]_H4.1_A4.1_F4.1_T4.2_[G10T]] | 1.28
UCUCUUUUUGUAUAUUAAUUCUCUU (ssRNA) [Id_ii_S1_P4E.2_K4.1_C4.2_[C-2T]_H4.1_A4.1_F4.1_T4.2_[G10A]] | 1.09
UCUCUUUAUGUAUAUUAUGUCUCUU (ssRNA) [Id_ii_S1_P4E.2_K4.1_C4.2_[C-2T]_[T-1A]_H4.1_A4.1_F4.1_T4.2_[G10T]_[T11G]] | 0.98
UCUCUUUAUGUAUAUUAUCUCUCUU (ssRNA) [Id_ii_S1_P4E.2_K4.1_C4.2_[C-2T]_[T-1A]_H4.1_A4.1_F4.1_T4.2_[G10T]_[T11C]] | 0.896
UCUCUUGUUGUAUAUUAUGUCUCUU (ssRNA) [Id_ii_S1_P4E.2_K4.1_C4.2_[C-2G]_H4.1_A4.1_F4.1_T4.2_[G10T]_[T11G]] | 1.07
UCUCUUUCUGUAUAUUAUGUCUCUU (ssRNA) [Id_ii_S1_P4E.2_K4.1_C4.2_[C-2T]_[T-1C]_H4.1_A4.1_F4.1_T4.2_[G10T]_[T11G]] | 0.963
UCUCUUUGCAAAUUAUCUCUU (ssRNA) [Ib_S1_P4E.1_K4.1_C4.1_H4.1_[T3C]_A4.1_[T5A]_F4.1_T4.1] | 926
UCUCUUUUUGUAUAUUAGCUCUCUU (ssRNA) [Id_ii_S1_P4E.2_K4.1_C4.2_[C-2T]_H4.1_A4.1_F4.1_T4.2_[T11C]] | 0.413
UCUCUUUUUGUAUAUUAGUUCUCUU (ssRNA) [Id_ii_S1_P4E.2_K4.1_C4.2_[C-2T]_H4.1_A4.1_F4.1_T4.2] | 0.256
UCUCUUGCUGUAUAUUAUCUCUCUU (ssRNA) [Id_ii_S1_P4E.2_K4.1_C4.2_[C-2G]_[T-1C]_H4.1_A4.1_F4.1_T4.2_[G10T]_[T11C]] | 1.14
UCUCUUUUUGUAUAUUACUUCUCUU (ssRNA) [Id_ii_S1_P4E.2_K4.1_C4.2_[C-2T]_H4.1_A4.1_F4.1_T4.2_[G10C]] | 0.909
UCUCUUUUUGUAUAUUAACUCUCUU (ssRNA) [Id_ii_S1_P4E.2_K4.1_C4.2_[C-2T]_H4.1_A4.1_F4.1_T4.2_[G10A]_[T11C]] | 1.09
UCUCUUUUUGUAUAUUACCUCUCUU (ssRNA) [Id_ii_S1_P4E.2_K4.1_C4.2_[C-2T]_H4.1_A4.1_F4.1_T4.2_[G10C]_[T11C]] | 1.09
UCUCUUGUUGUAUAUUAAAUCUCUU (ssRNA) [Id_ii_S1_P4E.2_K4.1_C4.2_[C-2G]_H4.1_A4.1_F4.1_T4.2_[G10A]_[T11A]] | 1.78
UCUCUUUAUGUAUAUUACCUCUCUU (ssRNA) [Id_ii_S1_P4E.2_K4.1_C4.2_[C-2T]_[T-1A]_H4.1_A4.1_F4.1_T4.2_[G10C]_[T11C]] | 0.854
UCUCUUUCUGUAUAUUACCUCUCUU (ssRNA) [Id_ii_S1_P4E.2_K4.1_C4.2_[C-2T]_[T-1C]_H4.1_A4.1_F4.1_T4.2_[G10C]_[T11C]] | 0.848
UCUCUUUCUGUAUAUUAAGUCUCUU (ssRNA) [Id_ii_S1_P4E.2_K4.1_C4.2_[C-2T]_[T-1C]_H4.1_A4.1_F4.1_T4.2_[G10A]_[T11G]] | 2.74
